From patent US20240409645A1 (DUALYX, published 2024)
Where a chain is given by its changes, count along the chain named.

T1: human common cytokine receptor γ-chain (IL-2Rγ) (human, UniProt P31785 23-262, limits assumed)
T1 construct: Recombinant human IL-2Rγ protein, coated (ELISA) or amine-coupled to a CM5 chip (SPR); also called hu IL-2R; CD132
T1 sequence: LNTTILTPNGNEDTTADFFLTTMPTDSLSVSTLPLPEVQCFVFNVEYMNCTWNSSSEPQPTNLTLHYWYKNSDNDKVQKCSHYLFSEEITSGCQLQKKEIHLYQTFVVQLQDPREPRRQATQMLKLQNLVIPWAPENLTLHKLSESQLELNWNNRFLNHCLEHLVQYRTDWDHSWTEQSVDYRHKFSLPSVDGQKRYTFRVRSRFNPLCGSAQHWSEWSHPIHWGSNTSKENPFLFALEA

T2: mouse common cytokine receptor γ-chain (IL-2Rγ) (mouse, UniProt P34902 23-263, limits assumed)
T2 construct: Recombinant mouse IL-2Rγ protein; also called mo IL-2R; mouse IL-2R gamma
T2 sequence (looked up): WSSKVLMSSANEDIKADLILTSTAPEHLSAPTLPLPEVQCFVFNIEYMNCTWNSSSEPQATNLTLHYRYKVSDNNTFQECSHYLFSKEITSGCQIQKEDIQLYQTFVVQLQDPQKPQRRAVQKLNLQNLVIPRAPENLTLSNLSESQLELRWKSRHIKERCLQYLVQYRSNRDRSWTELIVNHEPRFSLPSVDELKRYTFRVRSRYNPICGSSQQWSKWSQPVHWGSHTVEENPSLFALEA

B1: FJ1427_P035MP07E01 (VHH)
VHH: QVQLQESGGGLVQAGGSLRLSCAASGRTLSRYAMGWFRQAPGKEREFVACDSWGGDTFYADSVEGRFTFSRDNAKNATYLQMNSLQPEDTAVYYCAGAPTSFATTAYSSSNSYTVWGQGTQVTVSL
notes: tested as periplasmic extract; also called Clone nr
B2: FJ1427_P035MP07F06 (VHH)
VHH: QVQLVESGGGLVQAGGSLRLSCAASGRALSRLAMGWFRQAPGKEREFVVASSWGDDTFYADSVKGRFTFSRDNAKNTVYLQMNSLQPGDTAVYYCAAAPTSFATTAYSSSNSYAYWGQGTQVTVSS
notes: as for B1
B3: FJ1427_P035MP07F04 (VHH)
VHH: B2 VHH with Q1E, A28T, L32Y, V49T, S51N, D55G, F58Y, K64Q, G88E
notes: tested as periplasmic extract; also called Clone nr; 606
B4: FJ1427_P035MP07G10 (VHH)
VHH: B1 VHH with Q5V, F47Y, C50I, A77E, T78V, T114R, V115Y, L126S
notes: tested as periplasmic extract; also called Clone nr; 655
B5: FJ1427_P035MP07F05 (VHH)
VHH: B2 VHH with Q1E, A28T, L32Y, K43R, V49T, S51N, D55G, F58Y, K64Q, G88E
notes: as for B1
B6: FJ1427_P035MP07H01 (VHH)
VHH: QVQLVESGGGLVQAGGSLRLFCATSGRTLSRYAMGWFRQAPGREREFVACDSWGGDTFYADSVKGRFTFSRDSAKNTVYLQMNSLQPEDTAVYYCAAAPTSFATTAYSSSNSYAYWGQGTQVTVSS
notes: as for B1
B7: FJ1427_P035MP07E09 (VHH)
VHH: B2 VHH with V5Q, A28T, L32Y, V49T, S51N, D55G, F58Y, K64Q, G88E
notes: as for B1
B8: FJ1427_P035MP07E02 (VHH)
VHH: B2 VHH
notes: as for B1
B9: FJ1427_P035MP07G05 (VHH)
VHH: B1 VHH with Q5V, C50A, F58Y, K75N, T78V, G97A, T114A, V115Y, L126S
notes: as for B1
B10: FJ1427_P035MP07H05 (VHH)
VHH: B2 VHH with A28T, L32Y, V49A, S51N, D55G, F58Y, A60T, K64E, T77A, A114S
notes: as for B1
B11: FJ1427_P035MP07E08 (VHH)
VHH: B6 VHH with F21S, T24A, R43K, C50A, F58Y, A60D, K64E, S73I, T77A
notes: as for B1
B12: FJ1427_P035MP07H02 (VHH)
VHH: B2 VHH
notes: tested as periplasmic extract; also called Clone nr; 592
B13: FJ1427_P035MP07E05 (VHH)
VHH: B2 VHH with Q1E, A28T, L32Y, V49T, S51N, D55G, F58Y, K64Q, G88E
notes: as for B1
B14: FJ1427_P035MP07H07 (VHH)
VHH: QVQLVESGGGLVQAGDSLRLSCAASGRTLSRYAMGWFRQAPGKEREFVAATSWGGDSYYADSVEGRFTFSRDNAKNAVYLQMNSLQPEDTAVYYCAAAPTSFATTAYSSSNSYANWGQGTQVTVSS
notes: as for B1
B15: FJ1427_P035MP07F10 (VHH)
VHH: B1 VHH
notes: tested as periplasmic extract; also called Clone nr; 654
B16: FJ1427_P035MP07H04 (VHH)
VHH: B14 VHH with D16G, T51M, S57T, Y58F, K75E, N76I, N115Y, S126H
notes: as for B1
B17: FJ1427_P035MP07G04 (VHH)
VHH: B14 VHH with Q1E, D16G, A49T, T51N, S57T, E64Q, A77T, N115Y
notes: as for B1
B18: FJ1427_P035MP07H10 (VHH)
VHH: B2 VHH with Q1E
notes: tested as periplasmic extract; also called Clone nr; 656
B19: FJ1427_P035MP07G08 (VHH)
VHH: B14 VHH with D16G, K43R, A49T, T51N, S57T, E64Q, A77T, N83S, N115Y
notes: as for B1
B20: FJ1427_P035MP07E04 (VHH)
VHH: B14 VHH with A23E, A49T, T51N, S57T, E64Q, A77T, N115Y
notes: tested as periplasmic extract; also called Clone nr; 605
B21: FJ1427_P035MP07F07 (VHH)
VHH: B14 VHH with Q1E, D16G, A49T, T51N, S57T, E64Q, A77T, N115Y
notes: tested as periplasmic extract; also called Clone nr; 630
B22: FJ1427_P035MP07B07 (VHH)
VHH: QVQLVESGGGLVQAGGSLRLSCAASGRSLSRYAMGWFRQAPGKEREFVAAISWGGDSFYTDSVEGRFTFSRDNAKNAVYLEMNDLQPEDTAVYYCAAAPTSFPTTAYSSSNSYSYWGRGTQVTVSS
notes: tested as periplasmic extract; also called Clone nr; 626
B23: FJ1427_P035MP07G02 (VHH)
VHH: B14 VHH with D16G, A49T, T51N, S57T, E64Q, A77T, N115Y
notes: as for B1
B24: FJ1427_P035MP07G03 (VHH)
VHH: B14 VHH with D16G, A49T, T51N, S57T, E64Q, A77T, N115Y
notes: as for B1
B25: FJ1427_P035MP07B05 (VHH)
VHH: B14 VHH with D16G, A49T, T51N, S57T, E64Q, A77T, N115Y
notes: tested as periplasmic extract; also called Clone nr; 610
B26: FJ1427_P035MP07A07 (VHH)
VHH: B14 VHH with D16G, A49T, T51N, S57T, E64Q, A77T, N115Y
notes: as for B1
B27: FJ1427_P035MP07E06 (VHH)
VHH: B14 VHH with D16G, A49T, T51N, S57T, E64Q, A77T, N115Y
notes: as for B1
B28: FJ1427_P035MP07E03 (VHH)
VHH: B14 VHH with D16G, A49T, T51N, S57T, E64Q, A77T, N115Y
notes: tested as periplasmic extract; also called Clone nr; 597
B29: FJ1427_P035MP07D03 (VHH)
VHH: B14 VHH with D16G, A49T, T51N, S57T, E64Q, A77T, N115Y
notes: as for B1

Molecular target: T1, human common cytokine receptor γ-chain …
Test: P.E. binding ELISA
Experimental: (§1) In a binding ELISA, human or mouse IL-2Rα, IL-2Rβ and IL-2Rγ proteins were coated directly on maxisorp microtiter plates overnight at 4° C. Free binding sites were blocked using 4% Marvel in PBS for 1 hour. Next, 1:5 dilution of P.E. in 1% Marvel/PBS were added to wells and incubated for 1 hour. […] Binding specificity was determined based on O.D. at 450 nm values compared to negative controls.

Binder	PE binding ELISA OD [OD450 nm]
B1	0.83
B2	1.34
B3	0.4
B4	0.682
B5	0.405
B6	0.818
B7	0.428
B8	0.62
B9	0.45
B10	1.14
B11	0.642
B12	0.801
B13	0.434
B14	1.42
B15	0.67
B16	0.593
B17	1.02
B18	0.572
B19	0.504
B20	0.729
B21	0.372
B22	0.29
B23	1.22
B24	0.495
B25	0.439
B26	1.04
B27	0.464
B28	0.445
B29	1.25

Molecular target: T2, mouse common cytokine receptor γ-chain …
Test: P.E. binding ELISA
Experimental: as §1

Binder	PE binding ELISA OD [OD450 nm]
B1	0.139
B2	0.082
B3	0.047
B4	0.74
B5	0.045
B6	0.133
B7	0.045
B8	0.061
B9	0.046
B10	0.049
B11	0.049
B12	0.066
B13	0.045
B14	0.047
B15	0.089
B16	0.052
B17	0.047
B18	0.049
B19	0.047
B20	0.046
B21	0.045
B22	0.045
B23	0.051
B24	0.048
B25	0.045
B26	0.047
B27	0.046
B28	0.048
B29	0.046

Molecular target: T1, human common cytokine receptor γ-chain …
Test: P.E. off-rate SPR
Experimental: (§2) SPR was performed to determine dissociation rates using Biacore 3000 instrument (GE Healthcare). Briefly, human and mouse IL-2R proteins were immobilized on carboxylmethyl dextran sensor chip (CM5) at approximately 2500 RUs using amine coupling in acetate buffer (GE Healthcare). The VHH-containing P.E. were loaded with a flow rate of 30 uL/min and the off-rates were measured over a 120s period.

Binder	koff [s⁻¹]
B1	0.00156
B2	0.00162
B3	0.00296
B4	0.00122
B5	0.00323
B6	0.00125
B7	0.0033
B8	0.00206
B9	0.00257
B10	0.00279
B11	0.00229
B12	0.00188
B13	0.00372
B14	0.00418
B15	0.00199
B16	0.00177
B17	0.00281
B18	0.00236
B19	0.003
B20	0.00259
B21	0.003
B22	0.00259
B23	0.00365
B24	0.00309
B25	0.00282
B26	0.00173
B27	0.00272
B28	0.00311
B29	0.00339

Molecular target: T2, mouse common cytokine receptor γ-chain …
Test: P.E. off-rate SPR
Experimental: as §2

Binder	koff [s⁻¹]
B1	0.0132
B2	0.0117
B3	0.115
B4	0.00682
B5	0.116
B6	0.0274
B7	0.108
B8	0.0132
B9	0.191
B10	0.118
B11	0.13
B12	0.0123
B13	0.12
B14	0.00331
B15	0.0121
B16	0.0823
B17	0.112
B18	0.0137
B19	0.105
B20	0.103
B21	0.133
B22	0.00347
B23	0.1
B24	0.099
B25	0.11
B26	0.0971
B27	0.102
B28	0.0966
B29	0.107
